Results published in article PMC13280853.

How the values were obtained:
[1] = target: Tenebrio molitor α-amylase (Tenebrio molitor) (UniProt P56634)
[2] = target: human salivary α-amylase (human) (UniProt P0DUB6)
[3] = target: porcine pancreatic α-amylase (porcine) (UniProt P00690)
Chain of UniProt P00690 (P00690 16-511): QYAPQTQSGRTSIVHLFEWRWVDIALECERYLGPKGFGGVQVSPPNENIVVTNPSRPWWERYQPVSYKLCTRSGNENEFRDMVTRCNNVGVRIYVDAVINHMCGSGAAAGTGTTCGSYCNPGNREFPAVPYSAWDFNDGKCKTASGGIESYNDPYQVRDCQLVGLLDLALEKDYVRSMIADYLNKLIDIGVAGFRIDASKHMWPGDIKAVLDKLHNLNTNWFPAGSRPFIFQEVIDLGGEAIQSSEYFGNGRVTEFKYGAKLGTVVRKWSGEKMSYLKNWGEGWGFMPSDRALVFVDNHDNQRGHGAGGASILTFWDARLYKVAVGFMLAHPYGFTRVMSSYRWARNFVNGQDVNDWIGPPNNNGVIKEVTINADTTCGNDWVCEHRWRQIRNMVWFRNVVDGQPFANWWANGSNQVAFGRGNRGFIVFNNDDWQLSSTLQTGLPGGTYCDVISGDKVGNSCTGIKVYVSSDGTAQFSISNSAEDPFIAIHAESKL

Chain of UniProt P56634 (P56634 whole entry): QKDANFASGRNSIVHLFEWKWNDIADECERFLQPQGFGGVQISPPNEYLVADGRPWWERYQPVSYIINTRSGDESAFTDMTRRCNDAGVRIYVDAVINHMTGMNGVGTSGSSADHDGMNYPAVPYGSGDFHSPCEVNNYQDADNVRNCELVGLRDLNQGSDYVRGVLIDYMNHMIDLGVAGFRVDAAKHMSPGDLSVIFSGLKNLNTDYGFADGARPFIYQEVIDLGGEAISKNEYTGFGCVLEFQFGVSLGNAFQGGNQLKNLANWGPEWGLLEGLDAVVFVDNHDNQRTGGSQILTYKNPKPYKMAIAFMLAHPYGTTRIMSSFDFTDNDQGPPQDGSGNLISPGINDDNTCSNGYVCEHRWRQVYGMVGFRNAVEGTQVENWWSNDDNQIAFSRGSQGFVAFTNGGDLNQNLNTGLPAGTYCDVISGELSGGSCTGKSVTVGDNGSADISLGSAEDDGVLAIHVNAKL
Chain of UniProt P0DUB6 (P0DUB6 16-511): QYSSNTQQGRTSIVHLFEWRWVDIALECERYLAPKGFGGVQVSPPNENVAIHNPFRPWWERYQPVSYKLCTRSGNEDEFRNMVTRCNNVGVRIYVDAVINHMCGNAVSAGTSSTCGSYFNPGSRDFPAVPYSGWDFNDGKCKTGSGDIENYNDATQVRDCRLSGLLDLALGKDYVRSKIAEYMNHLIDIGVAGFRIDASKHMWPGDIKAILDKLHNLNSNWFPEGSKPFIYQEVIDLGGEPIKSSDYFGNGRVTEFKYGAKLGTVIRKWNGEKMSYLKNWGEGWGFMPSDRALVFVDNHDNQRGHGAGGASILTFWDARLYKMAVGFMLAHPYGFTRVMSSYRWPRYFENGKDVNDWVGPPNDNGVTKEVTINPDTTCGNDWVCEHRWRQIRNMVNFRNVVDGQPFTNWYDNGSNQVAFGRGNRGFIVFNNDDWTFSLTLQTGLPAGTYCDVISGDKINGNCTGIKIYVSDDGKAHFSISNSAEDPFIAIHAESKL

Substance | inhibition of T. molitor α-amylase activity (starch hydrolysis, DNS reagent; fraction at 50 μg/mL, 37 °C, 30 min; relative to 5 mM EDTA as 100% inhibition) [1] | inhibition of human salivary α-amylase activity (starch hydrolysis, DNS reagent; fraction at 50 μg/mL, 37 °C, 30 min; relative to 5 mM EDTA as 100% inhibition) [2] | inhibition of porcine pancreatic α-amylase activity (starch hydrolysis, DNS reagent; fraction at 50 μg/mL, 37 °C, 30 min; relative to 5 mM EDTA as 100% inhibition) [3]
LTP-rich fraction P10 from Capsicum chinense seeds | 98% | 93% | 89%
subfraction R1 of fraction P10 (lipid transfer protein, Capsicum chinense seeds) | 55% | 91% | 84%
subfraction R2 of fraction P10 (lipid transfer protein, Capsicum chinense seeds) | 72% | 85% | 81%
subfraction R3 of fraction P10 (lipid transfer protein, Capsicum chinense seeds) | 93% | 92% | 80%
